14 molecules from article PMC10425845 (The EMBO Journal, 2023) can be followed below.

The chains are these.
B5: Strep-REC114 (full-length mouse REC114 with a single N-terminal Strep-tag) (natural protein, UniProt Q9CWH4 1-259, looked up)
chain: MSEAGNVASGLGLPGEVSQWSLKRYGRFMLLDNVGSPGPSSEAAAAGSPTWKVFESSEESGSLVLTIVVSGHFFISQGQTLLEGFSLIGSKNWLKIVRRMDCLLFGTTIKNKSRMFRVQFSGESKEEALERCCGCVQTLAQYVTVQEPDSTTQELQQSQGPREAGESQGKDPLQQGPSLTLEQHVCMAAGAGVLQERTSVTHRAQSILAPEKLTLAYEGSSWGTEELGPFLRLCLMDQNFPAFVEEVEKELKKITGLRN

The target of series [1] is Strep-REC114-His-MEI4 1-127 complex (mouse) (UniProt Q9CWH4). Nature of the series: SEC-MALS. In general terms: Size exclusion chromatography separates by hydrodynamic size, large species first.
Series [2] has the same target. Description: native MS.
Series [3] concerns the target REC114 226-254-MEI4 1-43 minimal complex (mouse) (UniProt Q9CWH4). Description: AUC.
Series [4] has the same target. Nature of the series: AUC. This is another data set of the same source.
Series [5] concerns the molecule itself. Description: SEC-MALS.
Series [6] concerns the molecule itself. Nature of the series: SEC-MALS. This is another data set of the same source.
In series [7] the target is Strep-REC114-His-MEI4 1-127 complex (mouse) (UniProt Q9CWH4). Nature of the series: ITC. Background: Isothermal titration calorimetry measures the heat released or taken up as one component is titrated into another.
The target of series [8] is B5. Description: pull-down.
The next series concerns the target T1, MEI4 1-43 (untagged) (mouse, UniProt Q8BRM6 1-43).
T1 chain (looked up): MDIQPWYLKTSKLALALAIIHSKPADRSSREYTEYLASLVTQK
Description: AUC.

Series [9] addresses T2, Strep-REC114 1-159 (PH domain) (mouse, UniProt Q9CWH4 1-159).
T2 sequence (looked up): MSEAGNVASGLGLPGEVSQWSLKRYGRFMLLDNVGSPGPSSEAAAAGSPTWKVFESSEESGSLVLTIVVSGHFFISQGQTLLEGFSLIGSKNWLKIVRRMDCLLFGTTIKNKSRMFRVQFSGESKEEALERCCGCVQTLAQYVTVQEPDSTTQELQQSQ
Nature of the series: ITC.

For series [10], the target named is T3, His-MEI4 1-127 (mouse, UniProt Q8BRM6 1-127).
T3 sequence (looked up): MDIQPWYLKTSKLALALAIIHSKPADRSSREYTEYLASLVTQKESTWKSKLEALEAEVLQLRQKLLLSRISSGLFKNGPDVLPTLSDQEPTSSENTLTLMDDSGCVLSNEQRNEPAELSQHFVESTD
Nature of the series: native MS.

A further series concerns the target T4, His-MBP-IHO1 1-281 (mouse, UniProt Q6PDM4 1-281).
T4 sequence (looked up): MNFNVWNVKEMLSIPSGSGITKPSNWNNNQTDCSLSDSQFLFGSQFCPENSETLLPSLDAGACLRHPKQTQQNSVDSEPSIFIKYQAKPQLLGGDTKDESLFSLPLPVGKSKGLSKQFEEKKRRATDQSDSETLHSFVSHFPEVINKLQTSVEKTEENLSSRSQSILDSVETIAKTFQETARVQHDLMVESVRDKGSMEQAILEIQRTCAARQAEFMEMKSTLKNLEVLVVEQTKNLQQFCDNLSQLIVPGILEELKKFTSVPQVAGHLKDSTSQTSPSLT
Nature of the series: SEC.

Another series has as its target T5, His-Sumo-IHO1 1-281 (mouse, UniProt Q6PDM4 1-281).
T5 sequence (looked up): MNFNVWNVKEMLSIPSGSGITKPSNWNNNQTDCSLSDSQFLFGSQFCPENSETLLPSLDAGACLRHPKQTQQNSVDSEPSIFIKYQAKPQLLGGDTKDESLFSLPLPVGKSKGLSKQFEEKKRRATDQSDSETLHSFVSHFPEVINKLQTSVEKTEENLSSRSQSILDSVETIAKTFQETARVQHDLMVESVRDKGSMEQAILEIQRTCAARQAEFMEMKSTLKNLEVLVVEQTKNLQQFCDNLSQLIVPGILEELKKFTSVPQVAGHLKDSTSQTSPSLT
Description: SEC.

Series [11] deals with the molecule itself. Description: SEC-MALS. This is another data set of the same source.
Series [12] concerns the target T3, His-MEI4 1-127. Nature of the series: SEC-MALS.
Series [13] concerns the target B5. Nature of the series: SEC.

Where two headings read alike, the source gives them in different places.

With “Strep-REC114-His-MEI4 1-127 complex (from UniProt Q9CWH4 1-259; Q8BRM6 1-127)”, the stoichiometry N in series [1] and in [2] was 2 in each case. Turning to “REC114 226-254-MEI4 1-43 minimal complex (from UniProt Q9CWH4 226-254; Q8BRM6 1-43)”, the stoichiometry N in series [3] and in series [4] was 2 throughout. With ELGPFLRLCLMDQNFPAFVEEVEKELKKI (domain or fragment, mouse, UniProt Q9CWH4 226-254, looked up) [His-MBP-REC114 226-254], in “SEC-MALS [5]”, the “stoichiometry N” value was determined as 2. For GSMEQAILEIQRTCAARQAEFMEMKSTLKNLEVLVVEQTKNLQQFCDNLS (domain or fragment, mouse, UniProt Q6PDM4 196-245, looked up) [IHO1 196-245], the “stoichiometry N” value in the series “SEC-MALS [6]” was found to be 4.

B1: IHO1 125-281 (domain or fragment, mouse, UniProt Q6PDM4 125-281, looked up)
chain: ATDQSDSETLHSFVSHFPEVINKLQTSVEKTEENLSSRSQSILDSVETIAKTFQETARVQHDLMVESVRDKGSMEQAILEIQRTCAARQAEFMEMKSTLKNLEVLVVEQTKNLQQFCDNLSQLIVPGILEELKKFTSVPQVAGHLKDSTSQTSPSLT
For B1, the “stoichiometry N” value in “SEC-MALS [6]” was 4.

B2: IHO1 125-261 (domain or fragment, mouse, UniProt Q6PDM4 125-261, looked up)
chain: ATDQSDSETLHSFVSHFPEVINKLQTSVEKTEENLSSRSQSILDSVETIAKTFQETARVQHDLMVESVRDKGSMEQAILEIQRTCAARQAEFMEMKSTLKNLEVLVVEQTKNLQQFCDNLSQLIVPGILEELKKFTS
With B2, the “stoichiometry N” value in “SEC-MALS [6]” turned out to be 4.

B3: MBP-IHO1 125-261 (MBP joined by a five-residue linker) (domain or fragment, mouse, UniProt Q6PDM4 125-261, looked up)
chain: ATDQSDSETLHSFVSHFPEVINKLQTSVEKTEENLSSRSQSILDSVETIAKTFQETARVQHDLMVESVRDKGSMEQAILEIQRTCAARQAEFMEMKSTLKNLEVLVVEQTKNLQQFCDNLSQLIVPGILEELKKFTS
As for B3, the “stoichiometry N” value in “SEC-MALS [6]” stood at 4.

B4: IHO1 1-281 (domain or fragment, mouse, UniProt Q6PDM4 1-281, looked up)
chain: MNFNVWNVKEMLSIPSGSGITKPSNWNNNQTDCSLSDSQFLFGSQFCPENSETLLPSLDAGACLRHPKQTQQNSVDSEPSIFIKYQAKPQLLGGDTKDESLFSLPLPVGKSKGLSKQFEEKKRRATDQSDSETLHSFVSHFPEVINKLQTSVEKTEENLSSRSQSILDSVETIAKTFQETARVQHDLMVESVRDKGSMEQAILEIQRTCAARQAEFMEMKSTLKNLEVLVVEQTKNLQQFCDNLSQLIVPGILEELKKFTSVPQVAGHLKDSTSQTSPSLT
For the molecule B4, the Kd in [7] came out at 26.9 µM. Also, the “stoichiometry N” value in “SEC-MALS [6]” worked out at 4. Regarding MDIQPWYLKTSKLALALAIIHSKPADRSSREYTEYLASLVTQK (domain or fragment, mouse, UniProt Q8BRM6 1-43, looked up) [His-MBP-MEI4 1-43], the binding result in series [8] is “binds”. For ELGPFLRLCLMDQNFPAFVEEVEKELKKI (domain or fragment, mouse, UniProt Q9CWH4 226-254, looked up) [REC114 226-254 (untagged)], the “stoichiometry N” value with MEI4 1-43 (untagged) was found to be 2. Consider WGTEEDGPFLRLCLMDQNFPAFVEEVEKELKKITG (domain or fragment, mouse, UniProt Q9CWH4 222-256, looked up) [His-MBP-REC114 222-256 L227D], for which the binding result in the series “SEC-MALS [5]” is listed as “binds”. For MNFNVWNVKEMLSIPSGSGITKP (domain or fragment, mouse, UniProt Q6PDM4 1-23, looked up) [His-MBP-IHO1 1-23], the Kd in series [9] was found to be 30.4 µM; in series [7], 31.9 µM.

As for B5, the “stoichiometry N” value is 1 with His-MEI4 1-127 [10] and 2 in the series with His-MEI4 1-127 [12]. Also, the binding result in the series with His-MBP-IHO1 1-281, with His-Sumo-IHO1 1-281 and in the series “SEC-MALS [11]” was “binds” throughout.

B6: TOPOVIBL 452-579 (domain or fragment, mouse, UniProt J3QMY9 452-579, looked up)
chain: SCDTEQHLTPEKNISAQNTKDQHKNIAQEFPEESIGQAENKRPKRGSPNHGREESRVLGSARDRSPPKSATRDRELTEVSLTARGSQTQAAHGRAQAAEAASPAGGLEDLWLQEVSNLSEWLNPGHRS
B6: in series [13], the binding result is recorded as “binds”.

Broadly, the stoichiometry N is the number of molecules, sites or subunits per partner or assembly. One may read the Kd as the equilibrium constant for the complex coming apart.
